Assay results taken from article PMC11125772, “A Self-Assembling Pfs230D1-Ferritin Nanoparticle Vaccine Has Potent and Durable Malaria Transmission-Reducing Activity” (Vaccines, 2024).

B1: Pfs230D1-ferritin (other)
chain: SVLQSGALPSVGVDELDKIDLSYETTESGDTAVSEDSYDKYASNNTNKEYVCDFTDQLKPTESGPKVKKCEVKVNEPLIKVKIICPLKGSVEKLYDNIEYVPKKSPYVVLTKEETKLKEKLLSKLIYGLLISPTVNEKENNFKEGVIEFTLPPVVHKATVFYFICDNSKTEDDNKKGNRGIVEVYVEPYGNKINGGGGGSGESQVRQQFSKDIEKLLNEQVNKEMQSSNLYMSMSSWCYTHSLDGAGLFLFDHAAEEYEHAKKLIIFLNENNVPVQLTSISAPEHKFEGLTQIFQKAYEHEQHISESINNIVDHAIKSKDHATFNFLQWYVAEQHEEEVLFKDILDKIELIGNENHGLYLADQYVKGIAKSRKS
notes: Pfs230 of Plasmodium falciparum 3D7 (XP_001349600.1): a portion of the N-terminal disordered region, amino acids 542-588, and domain 1 (D1), amino acids 589-736; linker that contains residues from the N-terminal extension found in bullfrog lower subunit ferritin; Helicobacter pylori ferritin (WP_000949190.1), amino acids 3-167, with I7E and N19Q; Cloned in a modified pHLSec with a secretion …
B2: ferritin (H. pylori ferritin nanoparticle construct without Pfs230D1) (other)
chain: GGSGGSGGGGSGESQVRQQFSKDIEKLLNEQVNKEMQSSNLYMSMSSWCYTHSLDGAGLFLFDHAAEEYEHAKKLIIFLNENNVPVQLTSISAPEHKFEGLTQIFQKAYEHEQHISESINNIVDHAIKSKDHATFNFLQWYVAEQHEEEVLFKDILDKIELIGNENHGLYLADQYVKGIAKSRKS
notes: linker that contains residues from the N-terminal extension found in bullfrog lower subunit ferritin; Helicobacter pylori ferritin (WP_000949190.1), amino acids 3-167, with I7E and N19Q; Cloned in a modified pHLSec with a secretion signal ahead of the subunit; purified without a tag; Subunit theoretical molecular weight printed as 21.2 kDa; also called ferritin construct; Helicobacter pylori …

Target: the molecule itself
Assay: SEC-SAXS; SIBYLS beamline 12.3.1; Shodex KW-804 column for Pfs230D1-ferritin, Shodex KW-802.5 column for Pfs230D1; molecular weight from SAXS (ATSAS)

| Protein | stoichiometry N |
| --- | --- |
| B1 | 24 |
| B2 | 24 |
